Columns and labels:
[1] = target: A244 gp120 (no modifications) (HIV-1); assay: Kd table; row AE.A244 gp120, column A32 gD-; method not given
[2] = target: A244 gDΔ11 gp120 (Herpes simplex virus; HIV-1); assay: Kd table; row AE.A244 gp120, column A32 gD+; method not given
A244 Δ11 gp120 (HIV-1) [3] = assay: SPR
[4] = target: A244 gDΔ11 gp120 (Herpes simplex virus; HIV-1); assay: SPR
[5] = target: MN-rgp120 (RV144 vaccine immunogen) (Herpes simplex virus; HIV-1); assay: SPR; A32 captured on anti-Fc surface, RV144 MN-rgp120 injected at 0.5-5 µg/mL; fitted curves
[6] = target: 92TH023 gp120 (no modifications) (HIV-1); assay: Kd table; row AE.92TH023 gp120, column A32 gD-; method not given
A244 Δ11 gp120 (HIV-1) [7] = assay: SPR; A244 gp120 gD- Δ11 293T monomer batch 110608 flowed over immobilised A32; ratio to ConS gp140
[8] = target: A244-rgp120 (RV144 vaccine immunogen) (Herpes simplex virus; HIV-1); assay: SPR; A32 captured on anti-Fc surface, RV144 A244-rgp120 injected at 0.5-5 µg/mL; fitted curves [lower row]
A244 Δ11 gp120 (HIV-1) [9] = assay: SPR, mAb captured on anti-Fc surface, monomeric gp120 as analyte
[10] = target: A244 gp120 (no modifications) (HIV-1); assay: as above
[11] = target: A244 gDΔ11 gp120 (Herpes simplex virus; HIV-1); assay: as above
[12] = target: MN gDΔ11 gp120 (Herpes simplex virus; HIV-1); assay: SPR, not detailed
[13] = target: 92TH023 gDΔ11 gp120 (Herpes simplex virus; HIV-1); assay: SPR, not detailed
[14] = target: MN gp120 (no modifications) (HIV-1); assay: Kd table; row B.MN gp120, column A32 gD-; method not given
A244 Δ11 gp120 (HIV-1) [15] = assay: SPR blocking on immobilized A244 Δ11 gp120, mAb injected to near saturation, then RV144 vaccinee IgG; against 7B2 control
[16] = target: 92TH023 gDΔ11 gp120 (Herpes simplex virus; HIV-1); assay: Kd table; row AE.92TH023 gp120, column A32 gD+; method not given
[17] = target: MN gDΔ11 gp120 (Herpes simplex virus; HIV-1); assay: Kd table; row B.MN gp120, column A32 gD+; method not given
A244 Δ11 gp120 (HIV-1) [18] = assay: SPR; A244 gp120 gD- Δ11 293T monomer batch 110608 flowed over immobilised A32; response axis in RU
[19] = target: MN gp120 (no modifications) (HIV-1); assay: Kd table; row B.MN gp120, column 697D gD-; method not given
[20] = target: A244 gp120 (no modifications) (HIV-1); assay: SPR titration, binding to 697D mAb (697-30D); A244gDneg293Tmon at [5], [10], [20], [40], unit inferred; constant labelled ka1
[21] = target: A244 gDΔ11 gp120 (Herpes simplex virus; HIV-1); assay: SPR titration, binding to 697D mAb (697-30D); A244 gD+ monomer at [10] to [40], unit inferred
[22] = target: A244 gp120 (no modifications) (HIV-1); assay: SPR titration, binding to 697D mAb (697-30D); A244gDneg293Tmon at [5] to [40], unit inferred; constant labelled kd1
[23] = target: A244-rgp120 (RV144 vaccine immunogen) (Herpes simplex virus; HIV-1); assay: SPR; 697D captured on anti-Fc surface, RV144 A244-rgp120 injected at 5.0-100 µg/mL; fitted curves [lower row]
A244 Δ11 gp120 (HIV-1) [24] = assay: SPR titration, binding to 697D mAb; A244 gDneg D11 at [2] to [50], unit inferred
[25] = target: A244 gp120 (no modifications) (HIV-1); assay: SPR titration, binding to 697D mAb (697-30D); A244gDneg293Tmon at [5] to [40], unit inferred
[26] = target: 92TH023 gDΔ11 gp120 (Herpes simplex virus; HIV-1); assay: Kd table; row AE.92TH023 gp120, column 697D gD+; method not given
[27] = target: MN gDΔ11 gp120 (Herpes simplex virus; HIV-1); assay: Kd table; row B.MN gp120, column 697D gD+; method not given
[28] = target: A244 gDΔ11 gp120 (Herpes simplex virus; HIV-1); assay: Kd table; row AE.A244 gp120, column 697D gD+; method not given
[29] = target: MN-rgp120 (RV144 vaccine immunogen) (Herpes simplex virus; HIV-1); assay: SPR, mAb captured on anti-Fc surface, gp120 as analyte (FIG. 28)
[30] = target: A244-rgp120 (RV144 vaccine immunogen) (Herpes simplex virus; HIV-1); assay: as above
[31] = target: A244 gDΔ11 gp120 (Herpes simplex virus; HIV-1); assay: SPR titration, binding to 697D mAb (697-30D); A244 gD+ monomer at [10], [20], [30], [40], unit inferred
A244 Δ11 gp120 (HIV-1) [32] = assay: SPR titration, binding to 697D mAb; A244 gDneg D11 at [2], [4], [6], [10], [25], [50], unit inferred
[33] = target: 92TH023 gp120 (no modifications) (HIV-1); assay: Kd table; row AE.92TH023 gp120, column 697D gD-; method not given
[34] = target: A244 gp120 (no modifications) (HIV-1); assay: Kd table; row AE.A244 gp120, column 697D gD-; method not given
[35] = target: MN-rgp120 (RV144 vaccine immunogen) (Herpes simplex virus; HIV-1); assay: SPR; 697D captured on anti-Fc surface, RV144 MN-rgp120 injected at 5.0-100 µg/mL; fitted curves
[36] = target: A244 gp120 (no modifications) (HIV-1); assay: SPR
[37] = target: A244 gp120 (no modifications) (HIV-1); assay: SPR, Fab amine-coupled to the sensor surface, gp120 flowed
[38] = target: A244 gDΔ11 gp120 (Herpes simplex virus; HIV-1); assay: as above

C1 mAb A32 (antibody)
Kd [1]: 2.6 nM | Kd [2]: 0.13 nM | fold higher affinity than to A244 gp120 (A244 Δ11 gp120 (HIV-1) [3]): 9 fold | fold higher affinity than to A244 gp120 [4]: 6 fold | Kd [5]: 0.21 nM | Kd [6]: 4.6 nM | Relative Binding Env/ConS gp140 (A244 Δ11 gp120 (HIV-1) [7]): 5.16 | Kd [8]: 1.13 nM | Kd (A244 Δ11 gp120 (HIV-1) [9]): 0.67 nM | koff (A244 Δ11 gp120 (HIV-1) [9]): 0.00015 s⁻¹ | kon (A244 Δ11 gp120 (HIV-1) [9]): 223000 M⁻¹ s⁻¹ | Kd [10]: 6.25 nM | koff [10]: 0.00047 s⁻¹ | kon [10]: 76800 M⁻¹ s⁻¹ | Kd [11]: 1 nM | koff [11]: 0.000133 s⁻¹ | kon [11]: 134000 M⁻¹ s⁻¹ | fold enhancement of binding against the unmodified protein [12]: 2 to 3 fold | fold enhancement of binding against the unmodified protein [13]: 2 to 3 fold | Kd [14]: 0.8 nM | percent blocking of RV144 vaccinee IgG binding (A244 Δ11 gp120 (HIV-1) [15]): 66% | Kd [16]: 1.35 nM | Kd [17]: 4.15 nM | Req (A244 Δ11 gp120 (HIV-1) [18]): 2290

V2 mAb 697D (antibody)
Kd [19]: 1070 nM | kon [20]: 3400 M⁻¹ s⁻¹ | Kd [21]: 162 nM | koff [21]: 0.0066 s⁻¹ | koff [22]: 0.0063 s⁻¹ | fold higher affinity than to A244 gp120 (A244 Δ11 gp120 (HIV-1) [3]): 10 fold | fold tighter binding than to A244 gp120 with no modifications (A244 Δ11 gp120 (HIV-1) [3]): 10 fold | fold higher affinity than to A244 gp120 [4]: 10 fold | Kd [23]: 477 nM | Kd (A244 Δ11 gp120 (HIV-1) [24]): 98.7 nM | koff (A244 Δ11 gp120 (HIV-1) [24]): 0.0033 s⁻¹ | Kd [25]: 1900 nM | Kd [26]: 734 nM | Kd [27]: 488 nM | Kd [28]: 180 nM | Kd (A244 Δ11 gp120 (HIV-1) [9]): 157 nM | koff (A244 Δ11 gp120 (HIV-1) [9]): 0.00518 s⁻¹ | kon (A244 Δ11 gp120 (HIV-1) [9]): 26800 M⁻¹ s⁻¹ | Kd [10]: 1470 nM | koff [10]: 0.007 s⁻¹ | kon [10]: 4900 M⁻¹ s⁻¹ | Kd [11]: 218 nM | koff [11]: 0.00524 s⁻¹ | kon [11]: 24900 M⁻¹ s⁻¹ | Kd [29]: 477 nM | Kd [30]: 318 nM | fold enhancement of binding against the unmodified protein [12]: 2 to 3 fold | fold enhancement of binding against the unmodified protein [13]: 2 to 3 fold | kon [31]: 40000 M⁻¹ s⁻¹ | kon (A244 Δ11 gp120 (HIV-1) [32]): 24700 M⁻¹ s⁻¹ | Kd [33]: 1310 nM | Kd [34]: 1000 nM | Kd [35]: 318 nM

V2 mAb 2158 (antibody)
fold lower affinity than for A244gDΔ11 and A244Δ11 gp120 [36]: 3 fold | Kd (A244 Δ11 gp120 (HIV-1) [9]): 3.68 nM | koff (A244 Δ11 gp120 (HIV-1) [9]): 0.00013 s⁻¹ | kon (A244 Δ11 gp120 (HIV-1) [9]): 36500 M⁻¹ s⁻¹ | Kd [10]: 11.2 nM | koff [10]: 0.00019 s⁻¹ | kon [10]: 16400 M⁻¹ s⁻¹ | Kd [11]: 3.7 nM | koff [11]: 0.0001 s⁻¹ | kon [11]: 28700 M⁻¹ s⁻¹

697D Fab
Kd [37]: 5700 nM | Kd [38]: 690 nM | fold higher affinity than to unmodified A244 gp120 [38]: 8 fold | fold higher ka than to A244 gp120 [38]: 10 fold

From patent publication US10040826
